± gives the standard deviation of the averaged measurements.
Each sequence was assayed on Saccharomyces cerevisiae (assay: protein stability index of tFT-peptide fusion (C-terminal peptide) (PSI (0-1 scale)); higher = more stable (slower turnover)). Details: genetic background: das1 deletion; temperature: 30 C.
Method: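 MPS profiling in S. cerevisiae of the yeast C-terminome library: the last 12 aa of each annotated ORF are fused to the C-terminus of a sfGFP-mCherry timer, after a GGGS linker. Cells are FACS-sorted into 8 mCherry/sfGFP bins and deep-sequenced. PSI runs from 0 (unstable) to 1 (stable); wild type and das1Δ backgrounds, two technical replicates each.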

Row | Sequence | protein stability index
1 | AGTLDGRLAIWY [BPH1 C-terminal 12 aa] | 0.6943 ± 0.0032
2 | AIAKSIPKRVGL [PUT1 C-terminal 12 aa] | 0.718 ± 0.035
3 | AINEGHEGFGLA [TOM1 C-terminal 12 aa] | 0.663 ± 0.025
4 | AKNGDYVKIEQP [YMR315W C-terminal 12 aa] | 0.6792 ± 0.0039
5 | ALAASRAEQPPA [YCR049C C-terminal 12 aa] | 0.691 ± 0.0084
6 | ALEEALMDRLQF [ATG29 C-terminal 12 aa] | 0.7094 ± 0.0057
7 | ALGLAGVAMLFL [SED1 C-terminal 12 aa] | 0.694 ± 0.02
8 | ALGMYFLGPALK [YGL063C-A C-terminal 12 aa] | 0.697 ± 0.02
9 | ALSKDGIYTIAN [PAU1 C-terminal 12 aa] | 0.711 ± 0.0085
10 | AMYDKITESQKK [CHD1 C-terminal 12 aa] | 0.714 ± 0.027
11 | ANSLDAIFLKSK [YNL150W C-terminal 12 aa] | 0.6777 ± 0.0042
12 | APTPEACESCSG [RNR3 C-terminal 12 aa] | 0.696 ± 0.01
13 | AREQLYEKLEQA [MIC27 C-terminal 12 aa] | 0.697 ± 0.007
14 | ARMTGETPVAKH [YHM2 C-terminal 12 aa] | 0.688 ± 0.033
15 | ATEITPLLNIAE [VLD1 C-terminal 12 aa] | 0.674 ± 0.018
16 | ATSLSPNKASAS [YJL026C-A C-terminal 12 aa] | 0.685 ± 0.015
17 | ATVSKIIKLDRK [MYO4 C-terminal 12 aa] | 0.711 ± 0.0089
18 | AVHSFNTPAVQS [COX1 C-terminal 12 aa] | 0.6863 ± 0.0034
19 | AWAKKLKSMRRS [TAM41 C-terminal 12 aa] | 0.709 ± 0.013
20 | AWIADLDHTVQP [CHS6 C-terminal 12 aa] | 0.718 ± 0.017
21 | AYECAKHFLMKN [MRS4 C-terminal 12 aa] | 0.7061 ± 0.0038

Row | Sequence | protein stability index
22 | AYETLTGSKWSH [ADE1 C-terminal 12 aa] | 0.704 ± 0.01
23 | CADCGTILNNFR [DGR2 C-terminal 12 aa] | 0.731 ± 0.017
24 | CCCFLLELVCDN [YDR210W C-terminal 12 aa] | 0.512 ± 0.013
25 | CDVKSSIIVGIL [YLR358C C-terminal 12 aa] | 0.638 ± 0.02
26 | CIEIARHFVLKE [YEL009C-A C-terminal 12 aa] | 0.73 ± 0.014
27 | CKQNSNCEYLYM [YOR365C C-terminal 12 aa] | 0.682 ± 0.012
28 | CLRTVLKSDEIK [SFA1 C-terminal 12 aa] | 0.647 ± 0.025
29 | CLSGIGLFPVSS [YHL030W-A C-terminal 12 aa] | 0.6846 ± 0.0057
30 | CSTERPKRARCD [YOR342C C-terminal 12 aa] | 0.708 ± 0.0099
31 | DALDIANRIGYI [RPL25 C-terminal 12 aa] | 0.668 ± 0.027
32 | DDDDDGPYADDS [GSY2 C-terminal 12 aa] | 0.707 ± 0.0079
33 | DDDEFDEDEFED [PAH1 C-terminal 12 aa] | 0.695 ± 0.03
34 | DDKPKIPTMLNA [YME1 C-terminal 12 aa] | 0.7003 ± 0.0065
35 | DDPDENTALLGA [YDR338C C-terminal 12 aa] | 0.7076 ± 0.0037
36 | DDSSSTDTEERE [SSK2 C-terminal 12 aa] | 0.675 ± 0.028
37 | DEDEFENQRQQF [YIL055C C-terminal 12 aa] | 0.71 ± 0.0099
38 | DEEKQLSLSDMI [YOR186W C-terminal 12 aa] | 0.692 ± 0.03
39 | DEFCSQRSYTRF [MIN7 C-terminal 12 aa] | 0.716 ± 0.042
40 | DEQGNELSPRNY [MID2 C-terminal 12 aa] | 0.69199 ± 0.00026
41 | DFFDYDLLFQND [PIP2 C-terminal 12 aa] | 0.767 ± 0.021
42 | DFSKFKDSRLYD [YND1 C-terminal 12 aa] | 0.688 ± 0.034

Row | Sequence | protein stability index
43 | DGGLAGPVTVRD [FMP45 C-terminal 12 aa] | 0.6903 ± 0.005
44 | DGSADLGGWETM [UBR2 C-terminal 12 aa] | 0.732 ± 0.026
45 | DIIKSIGDSYSI [NSE3 C-terminal 12 aa] | 0.69 ± 0.03
46 | DIYEIRGTALDD [DSL1 C-terminal 12 aa] | 0.6986 ± 0.0054
47 | DKKVNNNIILFL [YAL037C-A C-terminal 12 aa] | 0.692 ± 0.042
48 | DLEGVLWRSYYA [BLM10 C-terminal 12 aa] | 0.744 ± 0.008
49 | DLIESTFRSITQ [PAN3 C-terminal 12 aa] | 0.7194 ± 0.0067
50 | DLLDKDVLLISE [CDC7 C-terminal 12 aa] | 0.706 ± 0.0095
51 | DLSLVFGNHEST [HEM15 C-terminal 12 aa] | 0.694 ± 0.038
52 | DNEGSRKMLKIE [CIN8 C-terminal 12 aa] | 0.6613 ± 0.0033
53 | DNKPKLSDVEKD [GEA2 C-terminal 12 aa] | 0.698 ± 0.019
54 | DNQPWQLARCGR [HRT1 C-terminal 12 aa] | 0.698 ± 0.015
55 | DPEPPKEDPHDH [TCP1 C-terminal 12 aa] | 0.706 ± 0.0085
56 | DQAAKTFVIKKD [MDM38 C-terminal 12 aa] | 0.703 ± 0.019
57 | DQFQKVEKSIVK [RRF1 C-terminal 12 aa] | 0.69 ± 0.02
58 | DQLEDTSSHDEL [MPD2 C-terminal 12 aa] | 0.7476 ± 0.0003
59 | DSDADIEELLEE [PGA2 C-terminal 12 aa] | 0.696 ± 0.015
60 | DSEDDEDESDDE [SUI2 C-terminal 12 aa] | 0.689 ± 0.036
61 | DSFIPLQPKKKI [YML037C C-terminal 12 aa] | 0.684 ± 0.05
62 | DSVEMKFDKLNI [RBS1 C-terminal 12 aa] | 0.6821 ± 0.0029
63 | DTDGAKISIINN [FKH2 C-terminal 12 aa] | 0.7019 ± 0.0064

Row | Sequence | protein stability index
64 | DVEDVLIDTLCN [PEX22 C-terminal 12 aa] | 0.723 ± 0.019
65 | DVEIDEDEEYFY [SPO12 C-terminal 12 aa] | 0.707 ± 0.0084
66 | DVYVLFYERVYD [UBP7 C-terminal 12 aa] | 0.682 ± 0.036
67 | DWLIDVIKEEQL [ARL1 C-terminal 12 aa] | 0.728 ± 0.051
68 | EADFRKRFPSKV [PRK1 C-terminal 12 aa] | 0.694 ± 0.0081
69 | EAGDSDILTTLA [RPL30 C-terminal 12 aa] | 0.706 ± 0.024
70 | EAQLSSNDEPLP [YCR102W-A C-terminal 12 aa] | 0.6904 ± 0.004
71 | ECPSVPPTVRAY [SDH1 C-terminal 12 aa] | 0.528 ± 0.011
72 | EDGDNWEVVGKK [TIF3 C-terminal 12 aa] | 0.7056 ± 0.0056
73 | EDHKVDGNKKED [VMA21 C-terminal 12 aa] | 0.68 ± 0.017
74 | EDIKQALKQATN [CYS3 C-terminal 12 aa] | 0.6902 ± 0.0052
75 | EEAREEFENIAL [SMI1 C-terminal 12 aa] | 0.679 ± 0.0096
76 | EEARQEKSGQES [CRZ1 C-terminal 12 aa] | 0.678 ± 0.048
77 | EECVKVQWESRT [TSR4 C-terminal 12 aa] | 0.681 ± 0.051
78 | EEIRRENFRVIE [KTR7 C-terminal 12 aa] | 0.713 ± 0.012
79 | EELQGNARALNN [SNN1 C-terminal 12 aa] | 0.6962 ± 0.0046
80 | EGEYADNVEPLA [PRY1 C-terminal 12 aa] | 0.7124 ± 0.0048
81 | EHIGAQNTGDGR [YER187W C-terminal 12 aa] | 0.6894 ± 0.0014
82 | EHTILSDSDETH [RIM15 C-terminal 12 aa] | 0.71 ± 0.012

From the supplement of paper PMC10724198
